Literature values in paper PMC9558124.

Target: PEX19 (Homo sapiens) (UniProt P40855)
UniProt P40855, sequence (P40855 2-296): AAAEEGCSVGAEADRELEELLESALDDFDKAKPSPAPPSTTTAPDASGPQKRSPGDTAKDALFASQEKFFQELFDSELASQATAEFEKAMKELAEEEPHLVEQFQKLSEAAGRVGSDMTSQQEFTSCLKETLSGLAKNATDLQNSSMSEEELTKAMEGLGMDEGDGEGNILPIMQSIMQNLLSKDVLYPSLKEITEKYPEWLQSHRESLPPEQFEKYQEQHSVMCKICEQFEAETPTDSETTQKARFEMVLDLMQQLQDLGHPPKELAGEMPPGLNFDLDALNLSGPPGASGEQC

Kd: 10 nM
Substance: PEX3 CTD (from UniProt P56589)
